Reference: patent publication US20230346885A1 (published 2023)
Positions count from the first letter of the chain named.

How the values were obtained:
Assay in all cases: binding, other
CLDN6 peptide on HLA [1] = biological target: T1, CLDN6 peptide on HLA (human)
T1 peptide: VLTSGIVFV

CT45A1 peptide on HLA [2] = biological target: T2, CT45A1 peptide on HLA (human)
T2 peptide: KIFEMLEGV

CT45A1 peptide on HLA [3] = biological target: T3, CT45A1 peptide on HLA (human)
T3 peptide: KLVKELRCV

CT45A1 peptide on HLA [4] = biological target: T4, CT45A1 peptide on HLA (human)
T4 peptide: SLIAGSAMSKA

CLDN6 peptide on HLA [5] = biological target: T5, CLDN6 peptide on HLA (human)
T5 peptide: TLIPVCWTA

DCAF4L2 peptide on HLA = biological target: T6, DCAF4L2 peptide on HLA (human)
T6 peptide: ILQDGQFLV

B1: TCR of SEQ ID NOs 339 and 340 (TCR, V domains shown)
Valpha: KQEVTQIPAALSVPEGENLVLNCSFTDSAIYNLQWFRQDPGKGLTSLLLIQSSQREQTSGRLNASLDKSSGRSTLYIAASQPGDSATYLCAVRPLGGGYQKVTFGTGTKLQVIP
Vbeta: NAGVTQTPKFRVLKTGQSMTLQCAQDMNHNSMYWYRQDPGMGLRLIYYSASEGTTDKGEVPNGYNVSRLNKREFSLRLESAAPSQTSVYFCASSDTGTSVTGELFFGEGSRLTVL
CLDN6 peptide on HLA [1]
  binding result: recognises

B2: TCR of SEQ ID NOs 355 and 356 (TCR, V domains shown)
Valpha: KQEVTQIPAALSVPEGENLVLNCSFTDSAIYNLQWFRQDPGKGLTSLLLIQSSQREQTSGRLNASLDKSSGRSTLYIAASQPGDSATYLCAVWRTTDSWGKLQFGAGTQVVVTP
Vbeta: NAGVTQTPKFRILKIGQSMTLQCTQDMNHNYMYWYRQDPGMGLKLIYYSVGAGITDKGEVPNGYNVSRSTTEDFPLRLLSAAPSQTSVYFCASSYGQGYGYTFGSGTRLTVV
CT45A1 peptide on HLA [2]
  binding result: recognises

B3: TCR of SEQ ID NOs 335 and 336 (TCR, V domains shown)
Valpha: KQEVTQIPAALSVPEGENLVLNCSFTDSAIYNLQWFRQDPGKGLTSLLLIQSSQREQTSGRLNASLDKSSGRSTLYIAASQPGDSATYLCAVRHLSNDYKLSFGAGTTVTVRA
Vbeta: NAGVTQTPKFQVLKTGQSMTLQCAQDMNHEYMSWYRQDPGMGLRLIHYSVGAGITDQGEVPNGYNVSRSTTEDFPLRLLSAAPSQTSVYFCASKRGFDEGSPLHFGNGTRLTVT
CLDN6 peptide on HLA [1]
  binding result: recognises

B4: TCR of SEQ ID NOs 347 and 348 (TCR, V domains shown)
Valpha: KQEVTQIPAALSVPEGENLVLNCSFTDSAIYNLQWFRQDPGKGLTSLLLIQSSQREQTSGRLNASLDKSSGRSTLYIAASQPGDSATYLCAVRTTDSWGKLQFGAGTPVVVTP
Vbeta: NAGVTQTPKFQVLKIGQSMTLQCTQDMNHNYMYWYRQDPGMGLKLIYYSVGAGITDKGEVPNGYNVSRSTTEDFPLRLELAAPSQTSVYFCASSSPLGKQYFGPGTRLTVL
CT45A1 peptide on HLA [3]
  binding result: recognises

B5: TCR of SEQ ID NOs 351 and 352 (TCR, V domains shown)
Valpha: B2 Valpha with A9V, V92L, W93R, R94G, T95E, T96A
Vbeta: B4 Vbeta with I15T, T24A, K99E, L111T
CT45A1 peptide on HLA [3]
  binding result: recognises

B6: TCR of SEQ ID NOs 357 and 358 (TCR, V domains shown)
Valpha: KQEVTQIPAALSVPEGENLVLNCSFTDSAIYNLQWFRQDPGKGLTSLLLIQSSQREQTSGRLNASLDKSSGRSTLYIAASQPGDSATYLCAVKVWSNTGKLIFGQGTTLQVKP
Vbeta: NAGVTQTPKFRILKIGQSMTLQCTQDMNHNYMYWYRQDPGMGLKLIYYSVGAGITDKGEVPNGYNVSRSTTEDFPLRLELAAPSQTSVYFCASSYEGDISYGYTFGFGTRLTVV
CT45A1 peptide on HLA [2]
  binding result: recognises

B7: TCR of SEQ ID NOs 353 and 354 (TCR, V domains shown)
Valpha: QKEVEQNSGPLSVPEGAIASLNCTYSDRGSQSFFWYRQYSGKSPELIMSIYSNGDKEDGRFTAQLNKASQYVSLLIRDSQPSDSATYLCAVNYRGALTFGSGTRLQVQP
Vbeta: NAGVTQTPKFRILKIGQSMTLQCTQDMNHNYMYWYRQDPGMGLKLIYYSVGAGITDQGEVPNGYNVSRSTTEDFPLRLLSAAPSQTSVYFCASSYLRTGGNYGYTFGSGTRLTVV
CT45A1 peptide on HLA [2]
  binding result: recognises

B8: TCR of SEQ ID NOs 337 and 338 (TCR, V domains shown)
Valpha: KQEVTQIPAALSVPEGENLVLNCSFTDSAIYNLQWFRQDPGKGLTSLLLIQSSQREQTSGRLNASLDKSSGRSTLYIAASQPGDSATYLCAVRHNQGGKLIFGQGTELSVKP
Vbeta: NAGVTQTPKFRVLKTGQSMTLLCAQDMNHEYMYWYRQDPGMGLRLIHYSVGAGITDQGEVPNGYNVSRLNKREFSLRLESAAPSQTSVYFCASSDRGVYEQYFGPGTRLTVT
CLDN6 peptide on HLA [1]
  binding result: recognises

B9: TCR of SEQ ID NOs 343 and 344 (TCR, V domains shown)
Valpha: QKEVEQNSGPLSVPEGAIASLNCTYSDRGSQSFFWYRQYSGKSPELIMFIYSNGDKEDGRFTAQLNKASQYVSLLIRDSQPSDSATYLCAVGGAGGYQKVTFGTGTKLQVIP
Vbeta: NAGVTQTPKFQVLKTGQSMTLQCAQDMNHEYMSWYRQDPGMGLRLIHYSVGAGITDQGEVPNGYNVSRSTTEDFPLRLLSAAPSQTSVYFCASSYSGNEQYFGPGTRLTVT
CT45A1 peptide on HLA [4]
  binding result: recognises

B10: TCR of SEQ ID NOs 331 and 332 (TCR, V domains shown)
Valpha: KQEVTQIPAALSVPEGENLVLNCSFTDSAIYNLQWFRQDPGKGLTSLLLIQSSQREQTSGRLNASLDKSSGRSTLYIAASQPGDSATYLCAAKAAGNKLTFGGGTRVLVKP
Vbeta: NAGVTQTPKFQVLKTGQSMTLQCAQDMNHNSMYWYRQDPGMGLRLIYYSASEGTTDKGEVPNGYNVSRLNKREFSLRLESAAPSQTSVYFCASSESLGVTGTAFFGQGTRLTVV
CLDN6 peptide on HLA [5]
  binding result: recognises

B11: TCR of SEQ ID NOs 333 and 334 (TCR, V domains shown)
Valpha: B8 Valpha with R93K, H94K, N95D, Q96A, G98N, I101T, Q104G, E107R, L108V, S109L
Vbeta: B10 Vbeta with S75P, E79L, E95R, S96R, V99A, T100S, G101S, T102E
CLDN6 peptide on HLA [5]
  binding result: recognises

B12: TCR of SEQ ID NOs 345 and 346 (TCR, V domains shown)
Valpha: KQEVTQIPAALSVPEGENLVLNCSFTDSAIYNLQWFRQDPGKGLTSLLLIQSSQREQTSGRLNASLDKSSGRSTLYIAASQPGDSATYLCAVRGYQKVTFGTGTKLQVIP
Vbeta: B10 Vbeta with S96A, L97S, V99L, T100R, G101S, T102P, A103L, F104H, Q107N, V114T
CT45A1 peptide on HLA [4]
  binding result: recognises

B13: TCR of SEQ ID NOs 329 and 330 (TCR, V domains shown)
Valpha: KQEVTQIPAALSVPEGENLVLNCSFTDSAIYNLQWFRQDPGKGLTSLLLIQSSQREQTSGRLNASLDKSSGRSTLYIAASQPGDSATYLCAVQGYGTALIFGKGTTLSVSS
Vbeta: NAGVTQTPKFQVLKTGQSMTLQCAQDMNHEYMSWYRQDPGMGLRLIHYSVGAGITDQGEVPNGYNVSRSTTEDFPLRLLSAAPSQTSVYFCASSQGPYMNTEAFFGQGTRLTVV
CLDN6 peptide on HLA [5]
  binding result: recognises

B14: TCR of SEQ ID NOs 359 and 360 (TCR, V domains shown)
Valpha: KQEVTQIPAALSVPEGENLVLNCSFTDSAIYNLQWFRQDPGKGLTSLLLIQSSQREQTSGRLNASLDKSSGRSTLYIAASQPGDSATYLCAVRPTRGDSWGKLQFGAGTQVVVTP
Vbeta: NAGVTQTPKFQVLKTGQSMTLQCAQDMNHNSMYWYRQDPGMGLRLIYYSASEGTTDKGEVPNGYNVSRLNKREFSLRLESAAPSQTSVYFCASSYSLLGNEAFFGQGTRLTVV
DCAF4L2 peptide on HLA
  binding result: recognises

B15: TCR of SEQ ID NOs 341 and 342 (TCR, V domains shown)
Valpha: QKEVEQNSGPLSVPEGAIASLNCTYSDRGSQSFFWYRQYSGKSPELIMFIYSNGDKEDGRFTAQLNKASQYVSLLIRDSQPSDSATYLCAVGTSYDKVIFGPGTSLSVIP
Vbeta: NAGVTQTPKFQVLKTGQSMTLQCAQDMNHEYMSWYRQDPGMGLRLIHYSVGAGITDQGEVPNGYNVSRSTTEDFPLRLLSAAPSQTSVYFCASSYGGGSGYTFGSGTRLTVV
CT45A1 peptide on HLA [4]
  binding result: recognises

B16: TCR of SEQ ID NOs 349 and 350 (TCR, V domains shown)
Valpha: B12 Valpha with R93T, G94N, Y95A, Q96G, V98S, T102D, K105T, Q107T, I109K
Vbeta: NAGVTQTPKFQVLKTGQSMTLQCAQDMNHEYMSWYRQDPGMGLRLIHYSVGAGITDQGEVPNGYNVSRSTTEDFPLRLESAAPSQTSVYFCASSEVPGPYGYTFGSGTRLTVV
CT45A1 peptide on HLA [3]
  binding result: recognises
